Source: US20050085421A1

Target: GHSR-1a
Test: 125I-ghrelin saturation binding on GHSR-1a membranes (typical value of membrane stock)

125I-ghrelin (peptide)
Bmax: 6 fmol/µg
